Reference: patent publication US20180214476

Tested on: T1, thrombin cleavable peptide GGLVPRGSGGC
T1 sequence: GGLVPRGSGGC

Substance: thrombin
- cleavage of the peptide by thrombin, LCMS analysis: the peptides were efficiently cleaved after 12 h incubation with 1 U mL^-1 thrombin in Tris buffer
